Reference: patent publication US20210371525A1

Target: CD277 (BTN3A1) on Jeko-1 cells (UniProt O00481)
Assay: cell-based or functional assay

Sequence of CD277 (BTN3A1) on Jeko-1 cells (O00481 30-513 limits assumed): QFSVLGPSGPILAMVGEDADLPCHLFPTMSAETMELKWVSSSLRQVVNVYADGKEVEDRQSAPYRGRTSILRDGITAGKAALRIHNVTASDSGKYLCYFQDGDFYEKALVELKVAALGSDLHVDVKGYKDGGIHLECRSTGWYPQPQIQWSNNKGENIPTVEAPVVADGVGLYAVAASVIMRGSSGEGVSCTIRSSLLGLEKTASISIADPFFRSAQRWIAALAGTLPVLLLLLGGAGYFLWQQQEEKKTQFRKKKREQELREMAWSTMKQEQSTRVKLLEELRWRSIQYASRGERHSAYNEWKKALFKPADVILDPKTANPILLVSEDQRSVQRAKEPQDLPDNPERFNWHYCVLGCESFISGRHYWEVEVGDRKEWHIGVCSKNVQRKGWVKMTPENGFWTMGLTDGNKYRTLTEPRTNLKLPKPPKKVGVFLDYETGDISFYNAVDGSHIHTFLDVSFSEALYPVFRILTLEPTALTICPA

B1: human Vγ9Vδ2-TCR on cultured Vγ9Vδ2-T cells (TCR, V domains shown)
V domain 1: AGHLEQPQISSTKTLSKTARLECVVSGITISATSVYWYRERPGEVIQFLVSISYDGTVRKESGIPSGKFEVDRIPETSTSTLTIHNVEKQDIATYYCALWEAQQELGKKIKVFGPGTKLIITD
V domain 2: AIELVPEHQTVPVSIGVPATLRCSMKGEAIGNYYINWYRKTQGNTMTFIYREKDIYGPGFKDNFQGDIDIAKNLAVLKILAPSERDEGSYYCACDTLGMGGEYTDKLIFGKGTRVTVEP
Question: Which results are given for B1?
Answer: decrease of 1D7-5C8-induced lysis of Jeko-1 cells with anti-CD277 mAb 103.2 (10 µg/mL): 11.4%; specific lysis of Jeko-1 cells at 10 pM 1D7-5C8 with anti-CD277 mAb 103.2 (10 µg/mL): 18.2%
